According to patent publication US20260167959A1, “APTAZYME-BASED REGULATABLE GENE EXPRESSION SYSTEMS” (REJUVENATE BIO INC, priority 2022, published 2026):

B1: RA138 (nucleic acid)
DNA: GCGCGGAATACCAGCATCGTCTTGATGCCCTTGGAAGTCCGCGTCCTGGATTCGCGGAAACGCGTACATCCAGCTGACGAGTCCCAAATAGGACGAAACGCGC
modifications: expressed or natural sequence
B2: RA146 (nucleic acid)
DNA: GCGCGTCCTGGATTCGCGGAAACGCGTACATCCAGCTGACGAGTCCCAAATAGGAATACCAGCATCGTCTTGATGCCCTTGGAAGTCCGGACGAAACGCGC
modifications: expressed or natural sequence
B3: RA141 (nucleic acid)
DNA: GCGCGTCCTGGATTCGCGGAAACGCGTACATCCGGAATACCAGCATCGTCTTGATGCCCTTGGAAGTCCGGCCAGCTGACGAGTCCCAAATAGGACGAAACGCGC
modifications: expressed or natural sequence
B4: RA144 (nucleic acid)
DNA: GCGCGCGAGAATACCAGCATCGTCTTGATGCCCTTGGAAGTCTCGTCCTGGATTCGCGGAAACGCGTACATCCAGCTGACGAGTCCCAAATAGGACGAAACGCGC
modifications: expressed or natural sequence
B5: RA136 (nucleic acid)
DNA: GCGCGTCCTGGATTCGCGGAAACGCGTACATCCAGCTGACGAGTCCCAAATAGGACGAAACGGAGAATACCAGCATCGTCTTGATGCCCTTGGAAGTCTCCGC
modifications: expressed or natural sequence
B6: RA134 (nucleic acid)
DNA: GCGCGTCCTGGATTCGCGGAAACGCGTACATCCAGCTGACGAGTCGGAATACCAGCATCGTCTTGATGCCCTTGGAAGTCCGCCCAAATAGGACGAAACGCGC
modifications: expressed or natural sequence
B7: RA148 (nucleic acid)
DNA: GCGCGTCCTGGATTCGCGGAAACGCGTACATCCAGCTGACGAGAGAATACCAGCATCGTCTTGATGCCCTTGGAAGTCTTCCCAAATAGGACGAAACGCGC
modifications: expressed or natural sequence
B8: RA133 (nucleic acid)
DNA: GCGCGAGAATACCAGCATCGTCTTGATGCCCTTGGAAGTCTCGTCCTGGATTCGCGGAAACGCGTACATCCAGCTGACGAGTCCCAAATAGGACGAAACGCGC
modifications: expressed or natural sequence
B9: RA135 (nucleic acid)
DNA: GCGCGTCCTGGATTCGCGGAAACGAGTGATACCAGCATCGTCTTGATGCCCTTGGCAGCACTCGTACATCCAGCTGACGAGTCCCAAATAGGACGAAACGCGC
modifications: expressed or natural sequence
B10: RA143 (nucleic acid)
DNA: GCGCGTCCTGGATTCGCGGAAACGCGTACATCCAGCTGACGAGTGATACCAGCATCGTCTTGATGCCCTTGGCAGCACTAGTCCCAAATAGGACGAAACGCGC
modifications: expressed or natural sequence
B11: RA147 (nucleic acid)
DNA: GCGCGTCCTGGATTCGCGGAAACGCGTACATCCAGCTGACGAGTAGAATACCAGCATCGTCTTGATGCCCTTGGAAGTCTCCCAAATAGGACGAAACGCGC
modifications: expressed or natural sequence
B12: RA142 (nucleic acid)
DNA: GCGCGTCCTGGATTCGCGGAAACGCGTACGGAATACCAGCATCGTCTTGATGCCCTTGGAAGTCCATCCAGCTGACGAGTCCCAAATAGGACGAAACGCGC
modifications: expressed or natural sequence
B13: RA150 (nucleic acid)
DNA: GCGCGTCCTGGATTCGCGGAAACGCGTACATCCAGCTGACGAGTCCCAAATAGGACGAAAGGAATACCAGCATCGTCTTGATGCCCTTGGAAGTCCCGCGC
modifications: expressed or natural sequence
B14: RA139 (nucleic acid)
DNA: GGAGAATACCAGCATCGTCTTGATGCCCTTGGAAGTCTCCGCGTCCTGGATTCGCGGAAACGCGTACATCCAGCTGACGAGTCCCAAATAGGACGAAACGCGC
modifications: expressed or natural sequence
B15: RA013 (nucleic acid)
DNA: GCGCGTCCTGGATTCGCGGAAACGCGTACATCCAGCTGACGAGTCCCAAATAGGACGAAACGAGAATACCAGCATCGTCTTGATGCCCTTGGAAGTCTCGC
modifications: expressed or natural sequence
B16: RA145 (nucleic acid)
DNA: GCGCGGAATACCAGCATCGTCTTGATGCCCTTGGAAGTCCGTCCTGGATTCGCGGAAACGCGTACATCCAGCTGACGAGTCCCAAATAGGACGAAACGCGC
modifications: expressed or natural sequence
B17: RA149 (nucleic acid)
DNA: GCGCGGAGAATACCAGCATCGTCTTGATGCCCTTGGAAGTCTCTCCTGGATTCGCGGAAACGCGTACATCCAGCTGACGAGTCCCAAATAGGACGAAACGCGC
modifications: expressed or natural sequence
B18: RA140 (nucleic acid)
DNA: GCGCGTCCTGGATTCGCGGAAACGCGTACATCCAGCTGACGAGTCCGGAATACCAGCATCGTCTTGATGCCCTTGGAAGTCCGGCCCAAATAGGACGAAACGCGC
modifications: expressed or natural sequence
B19: RA014 (nucleic acid)
DNA: GCGCGTCCTGGATTCGCGGAAACGCGTACATCCAGCTGACGAGTCCCAAATAGGACGAAACGGAATACCAGCATCGTCTTGATGCCCTTGGAAGTCCGCGC
modifications: expressed or natural sequence
B20: RA137 (nucleic acid)
DNA: GCGCGTCCTGGATTCGCGGAAACGCGTACGAGAATACCAGCATCGTCTTGATGCCCTTGGAAGTCTCATCCAGCTGACGAGTCCCAAATAGGACGAAACGCGC
modifications: expressed or natural sequence
B21: RA132 (nucleic acid)
DNA: GCGCGTCCTGGATTCGCGGAATACCAGCATCGTCTTGATGCCCTTGGAAGTCCGGAAACGCGTACATCCAGCTGACGAGTCCCAAATAGGACGAAACGCGC
modifications: expressed or natural sequence

System: Renilla luciferase RNA
Experiment: Barcoded aptazyme variant library screen: un-cleaved Renilla luciferase RNA by barcode read counts, HEK293-T cells
Type: cell-based
Settings: un-cleaved Renilla luciferase RNA, HEK293-T cells cultured with 1 mM theophylline (ON) over without theophylline (OFF); barcode read counts, triplicate
Method in brief: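 Aptazyme variants (seven theophylline aptamers inserted after each T3H48 ribozyme nucleotide, 9-nt barcoded) cloned into the 3′ UTR of Renilla luciferase in psiCHECK-2; cells cultured ± theophylline, in triplicate. RNA and DNA barcodes amplified and sequenced; normalized read counts gave un-cleaved RNA fraction and ON/OFF fold-change.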

Row | Molecule | Fold change in RNA expression between the ON state and the OFF state [fold]
1 | B1 | 1.4
2 | B2 | 1.4
3 | B3 | 1.4
4 | B4 | 1.4
5 | B5 | 1.4
6 | B6 | 1.4
7 | B7 | 1.4
8 | B8 | 1.4
9 | B9 | 1.4
10 | B10 | 1.4
11 | B11 | 1.4
12 | B12 | 1.4
13 | B13 | 1.4
14 | B14 | 1.4
15 | B15 | 3.3
16 | B16 | 1.4
17 | B17 | 1.4
18 | B18 | 1.4
19 | B19 | 3.1
20 | B20 | 1.4
21 | B21 | 1.4
